Measured values: patent publication US20240384250A1, “FIBROBLAST GROWTH FACTOR 23 MODULATING COMPOUNDS” (THE UAB RESEARCH FOUNDATION, priority 2021, published 2024)
“Also recorded” adds a separate entry of the source.

T1: FGF23 binding to FGFR4 (Homo sapiens, UniProt P22455+Q9GZV9)
T1 construct: Fc-coupled FGFR ectodomains were immobilized on protein A/G beads; purchased R&D Systems 2604FG025/CF or 2629FG025/CF; 685FR050
T1 sequence (Q9GZV9 25-251): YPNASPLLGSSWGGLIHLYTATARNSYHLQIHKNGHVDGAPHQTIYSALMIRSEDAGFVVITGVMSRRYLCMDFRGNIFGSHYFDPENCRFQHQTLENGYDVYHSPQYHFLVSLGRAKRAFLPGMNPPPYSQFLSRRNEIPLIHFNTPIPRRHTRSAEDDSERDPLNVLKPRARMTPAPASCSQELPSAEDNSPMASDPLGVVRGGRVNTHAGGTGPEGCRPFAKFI
T1 sequence (P22455 22-369 limits assumed): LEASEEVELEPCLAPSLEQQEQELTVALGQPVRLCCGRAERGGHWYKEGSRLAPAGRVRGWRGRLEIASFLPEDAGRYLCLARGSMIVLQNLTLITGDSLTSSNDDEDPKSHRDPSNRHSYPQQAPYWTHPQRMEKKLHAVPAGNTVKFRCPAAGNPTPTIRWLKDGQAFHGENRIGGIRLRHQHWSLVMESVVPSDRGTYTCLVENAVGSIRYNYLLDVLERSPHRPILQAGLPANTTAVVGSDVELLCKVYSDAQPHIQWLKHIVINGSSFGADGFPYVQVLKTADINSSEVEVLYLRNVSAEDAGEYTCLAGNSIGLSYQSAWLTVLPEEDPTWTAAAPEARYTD

T2: FGF2 binding to FGFR1c (Homo sapiens, UniProt P11362)
T2 construct: a chimeric protein consisting of the FGFR1 ectodomain and the Fc region of a human IgG; purchased R&D Systems 233-FB/CF; 658FR050
T2 sequence (P11362 22-376 limits assumed): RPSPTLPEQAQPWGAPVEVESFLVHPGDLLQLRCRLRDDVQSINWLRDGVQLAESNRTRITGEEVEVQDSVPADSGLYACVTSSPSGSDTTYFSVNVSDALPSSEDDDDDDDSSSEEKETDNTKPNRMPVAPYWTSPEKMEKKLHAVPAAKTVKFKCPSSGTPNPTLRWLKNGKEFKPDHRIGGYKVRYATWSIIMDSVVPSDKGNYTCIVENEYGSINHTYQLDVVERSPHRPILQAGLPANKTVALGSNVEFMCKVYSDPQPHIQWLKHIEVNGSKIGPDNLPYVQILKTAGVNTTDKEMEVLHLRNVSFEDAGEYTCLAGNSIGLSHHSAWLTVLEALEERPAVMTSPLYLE

T3: FGF8b binding to FGFR1c (Homo sapiens, UniProt P11362)
T3 construct: a chimeric protein consisting of the FGFR1 ectodomain and the Fc region of a human IgG; purchased R&D Systems 423-F8/CF; 658FR050
T3 sequence (P11362 22-376 limits assumed): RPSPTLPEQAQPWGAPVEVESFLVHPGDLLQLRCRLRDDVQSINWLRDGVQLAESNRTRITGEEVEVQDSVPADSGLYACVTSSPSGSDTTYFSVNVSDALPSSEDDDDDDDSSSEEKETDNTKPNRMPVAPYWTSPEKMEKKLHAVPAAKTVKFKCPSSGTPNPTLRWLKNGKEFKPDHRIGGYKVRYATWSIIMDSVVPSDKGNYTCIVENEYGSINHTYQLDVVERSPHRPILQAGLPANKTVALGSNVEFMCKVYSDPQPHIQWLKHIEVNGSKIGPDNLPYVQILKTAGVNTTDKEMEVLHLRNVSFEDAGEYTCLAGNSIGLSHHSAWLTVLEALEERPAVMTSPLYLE


Assays:
[1] = target: T1, FGF23 binding to FGFR4; experiment: Plate-based binding, FGF23 coated, then sKL, heparin or PBS, then Fc-FGFR; settings: with sKL, with heparin 0.4 USP, or alone
Description: (§1) Proteins were coated on 96-well plates (MaxiSorp; 439454, Thermo Fisher Scientific), and proteins were added to wells in 100 μl of enzyme-linked immunosorbent assay (ELISA) coating buffer (E107, Bethyl Laboratories) with a lid placed overtop and incubated at 4° C. overnight. Plates were washed 5× with 350 μl of assay buffer (50 mM Tris [pH 7.4], 200 mM NaCl, 0.01% Tween 20) on a 50 TS microplate washer (BioTek). Plates were blocked for 1 hour in 200 μl of assay buffer with 0.5% BSA. Plates were washed as before, and proteins were incubated on plates in 100 μl of assay buffer with 0.5% BSA. Proteins or heparin was incubated in orders described in the respective figure legends. Assays using FLAG-tag-based detection were incubated with anti-FLAG coupled to HRP at 1:20,000, and assays using Fc detection were incubated with anti-human Fc coupled to HRP at 1:10,000. Plates were washed as above, and 100 μl of 3,3′,5,5′-tetramethylbenzidine (TMB) substrate (E102, Bethyl Laboratories) was added for 15 to 20 minutes until positive wells developed a dark blue color. Reactions were stopped with ELISA stop solution (E115, Bethyl Laboratories) and analyzed using the Synergy HI plate reader (BioTek) at 450 nm wavelength. […] As a control to remove background absorbance values, wells were coated with an equal amount of BSA to match the amount of protein coated in experimental wells and treated the same as experimental wells. To study the effects of sKL on the binding between paracrine FGFs and FGFRs, plates were run as above except coated with paracrine FGFs. Fc-FGFR1 was preincubated with sKL or vehicle for 60 minutes, and then the combination was added to wells and the assay was run as before.

[2] = target: T2, FGF2 binding to FGFR1c; experiment: Plate-based binding of paracrine FGF to Fc-FGFR1c with heparin and/or sKL; settings: Fc-FGFR1c preincubated with FLAG-sKL, absence and presence of heparin
Description: as §1

[3] = target: T3, FGF8b binding to FGFR1c; experiment: as above; settings: Fc-FGFR1c preincubated with 400 ng FLAG-sKL
Description: as §1

Molecule | binding of coated FGF23 to Fc-FGFR4 [1] | binding of FGFR1c to FGF2 in the presence of sKL [2] | binding of FGFR1c to FGF2 in the presence of sKL ([2]; listed as FLAG-sKL) | binding of FGFR1c to FGF8b in the presence of sKL [3]
FGF23: recombinant fibroblast growth factor 23 protein from R&D Systems (protein) YPDTSPLLGSNWGSLTHLYTATARTSYHLQIHRDGHVDGTPHQTIYSALMITSEDAGSVVITGAMTRRFLCMDLHGNIFGSLHFSPENCKFRQWTLENGYDVYLSQKHHYLVSLGRAKRIFQPGTNPPPFSQFLARRNEVPLLHFYTVRPRRHTRSAEDPPERDPLNVLKPRPRATPVPVSCSRELPSAEEGGPAASDPLGVLRRGRGDARGGAGGADRCRPFPRFV | low affinity; also recorded: weak affinity |  |  | 
sKL: recombinant soluble α-klotho ectodomain, mouse aa 35-982 and human aa 34-981, FLAG- or Strep/His-tagged, purified from HEK293 cells (protein, left off: small tags and cut ends, recombinant soluble α-klotho ectodomain, mouse aa 35-982 and human aa 34-981, FLAG- or Strep/His-tagged, purified from HEK293 cells) EPGDGAQTWARFSRPPAPEAAGLFQGTFPDGFLWAVGSAAYQTEGGWQQHGKGASIWDTFTHHPLAPPGDSRNASLPLGAPSPLQPATGDVASDSYNNVFRDTEALRELGVTHYRFSISWARVLPNGSAGVPNREGLRYYRRLLERLRELGVQPVVTLYHWDLPQRLQDAYGGWANRALADHFRDYAELCFRHFGGQVKYWITIDNPYVVAWHGYATGRLAPGIRGSPRLGYLVAHNLLLAHAKVWHLYNTSFRPTQGGQVSIALSSHWINPRRMTDHSIKECQKSLDFVLGWFAKPVFIDGDYPESMKNNLSSILPDFTESEKKFIKGTADFFALCFGPTLSFQLLDPHMKFRQLESPNLRQLLSWIDLEFNHPQIFIVENGWFVSGTTKRDDAKYMYYLKKFIMETLKAIKLDGVDVIGYTAWSLMDGFEWHRGYSIRRGLFYVDFLSQDKMLLPKSSALFYQKLIEKNGFPPLPENQPLEGTFPCDFAWGVVDNYIQVDTTLSQFTDLNVYLWDVHHSKRLIKVDGVVTKKRKSYCVDFAAIQPQIALLQEMHVTHFRFSLDWALILPLGNQSQVNHTILQYYRCMASELVRVNITPVVALWQPMAPNQGLPRLLARQGAWENPYTALAFAEYARLCFQELGHHVKLWITMNEPYTRNMTYSAGHNLLKAHALAWHVYNEKFRHAQNGKISIALQADWIEPACPFSQKDKEVAERVLEFDIGWLAEPIFGSGDYPWVMRDWLNQRNNFLLPYFTEDEKKLIQGTFDFLALSHYTTILVDSEKEDPIKYNDYLEVQEMTDITWLNSPSQVAVVPWGLRKVLNWLKFKYGDLPMYIISNGIDDGLHAEDDQLRVYYMQNYINEALKAHILDGINLCGYFAYSFNDRTAPRFGLYRYAADQFEPKASMKHYRKIIDSNGFPGPETLERFCPEEFTVCTECSFFHTRKS | highest FGF23-sKL affinities; also recorded: increased; also recorded: the strongest | reduced; also recorded: this effect did not occur in the presence of sKL | significantly reduced | reduced the binding
